Assay results from patent US11946041B2, “Modification of polypeptides” (BicycleRD Limited, priority 2017, dated 2024).
Values belong to the sequence of their own block, whether it stands above or below them.

Experiments:
CCR4 [1] = target: T1, CCR4 (Homo sapiens, UniProt P51679); assay: PathHunter eXpress CCR4 CHO-K1 β-Arrestin GPCR Assay, agonist format; type: cell-based
T1 construct: host or cells: CHO-K1
T1 sequence (P51679 1-360): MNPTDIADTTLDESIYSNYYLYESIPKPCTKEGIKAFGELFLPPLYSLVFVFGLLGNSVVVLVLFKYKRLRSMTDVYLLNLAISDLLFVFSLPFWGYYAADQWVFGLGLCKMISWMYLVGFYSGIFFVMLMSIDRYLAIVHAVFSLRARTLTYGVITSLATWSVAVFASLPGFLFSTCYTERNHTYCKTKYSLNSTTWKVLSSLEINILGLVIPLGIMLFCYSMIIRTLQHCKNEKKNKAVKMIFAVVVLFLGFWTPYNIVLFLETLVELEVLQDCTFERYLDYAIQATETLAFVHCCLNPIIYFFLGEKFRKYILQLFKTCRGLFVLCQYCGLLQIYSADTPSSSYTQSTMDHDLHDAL
Procedure: (§1) The aim of the present experiment was to analyze if if these peptides are functional using a Discoverx Assay, the Beta-Arrestin recruitment assay, to identify agonism or antagonism in the selected peptides.
(§2) Standard protocols used: • PathHunter® eXpress CCR4 CHO-K1 β-Arrestin GPCR Assay. 100 dp (1×96-well)
(§3) The experiment was carried using the manufacturer instructions.
The concentration was increased to test for response at high concentration.

CCR4 [2] = target: T1, CCR4; assay: PathHunter eXpress CCR4 CHO-K1 β-Arrestin GPCR Assay, antagonist format with CCL22; type: cell-based; details: for antagonist for CCR4: 1 nM CCL22
Procedure: as §1, §2, §3
We therefore used the assay in an antagonist format, using 10 nM CCL22.
We repeated this experiment lowering the concentration of CCL22 from 10 nM to 1 nM to show a full inhibition curve.

Raw Data (CCR4 [1]; 0.006 nM): 27634 | Raw Data (CCR4 [1]; 0.02 nM): 30705 | Raw Data (CCR4 [1]; 0.06 nM): 30335 | Raw Data (CCR4 [1]; 0.17 nM): 31512 | Raw Data (CCR4 [1]; 0.51 nM): 31217 | Raw Data (CCR4 [1]; 1.5 nM): 34513 | Raw Data (CCR4 [1]; 4.6 nM): 29431 | Raw Data (CCR4 [1]; 13.9 nM): 24436 | Raw Data (CCR4 [1]; 41.7 nM): 23071 | Raw Data (CCR4 [1]; 125 nM): 22524 | Raw Data (CCR4 [1]; 375 nM): 20081 | Raw Data (CCR4 [1]; high concentration, 0.001 uM): 11252 | Raw Data (CCR4 [1]; high concentration, 0.003 uM): 11640 | Raw Data (CCR4 [1]; high concentration, 0.008 uM): 12612 | Raw Data (CCR4 [1]; high concentration, 0.023 uM): 12684 | Raw Data (CCR4 [1]; high concentration, 0.1 uM): 13168 | Raw Data (CCR4 [1]; high concentration, 0.2 uM): 13560 | Raw Data (CCR4 [1]; high concentration, 0.6 uM): 12989 | Raw Data (CCR4 [1]; high concentration, 1.9 uM): 12391 | Raw Data (CCR4 [1]; high concentration, 5.6 uM): 12460 | Raw Data (CCR4 [1]; high concentration, 16.7 uM): 12506 | Raw Data (CCR4 [1]; high concentration, 50 uM): 11512 | Raw Data (CCR4 [2]; 1 nM CCL22, 0.001 uM): 229814 | Raw Data (CCR4 [2]; 1 nM CCL22, 0.003 uM): 230497 | Raw Data (CCR4 [2]; 1 nM CCL22, 0.008 uM): 210841 | Raw Data (CCR4 [2]; 1 nM CCL22, 0.023 uM): 219415 | Raw Data (CCR4 [2]; 1 nM CCL22, 0.1 uM): 218869 | Raw Data (CCR4 [2]; 1 nM CCL22, 0.2 uM): 228712 | Raw Data (CCR4 [2]; 1 nM CCL22, 0.6 uM): 229977 | Raw Data (CCR4 [2]; 1 nM CCL22, 1.9 uM): 190843 | Raw Data (CCR4 [2]; 1 nM CCL22, 5.6 uM): 200574 | Raw Data (CCR4 [2]; 1 nM CCL22, 16.7 uM): 156536 | Raw Data (CCR4 [2]; 1 nM CCL22, 50 uM): 114497 | Raw Data (CCR4 [2]; 10 nM CCL22, 0.001 uM): 195228 | Raw Data (CCR4 [2]; 10 nM CCL22, 0.003 uM): 200825 | Raw Data (CCR4 [2]; 10 nM CCL22, 0.008 uM): 201223 | Raw Data (CCR4 [2]; 10 nM CCL22, 0.023 uM): 183445 | Raw Data (CCR4 [2]; 10 nM CCL22, 0.1 uM): 170995 | Raw Data (CCR4 [2]; 10 nM CCL22, 0.2 uM): 195355 | Raw Data (CCR4 [2]; 10 nM CCL22, 0.6 uM): 181254 | Raw Data (CCR4 [2]; 10 nM CCL22, 1.9 uM): 194535 | Raw Data (CCR4 [2]; 10 nM CCL22, 5.6 uM): 180947 | Raw Data (CCR4 [2]; 10 nM CCL22, 16.7 uM): 179127 | Raw Data (CCR4 [2]; 10 nM CCL22, 50 uM): 133745
Sequence: ACPLMSSVNCTAGCA [24-13-00-N001, bicyclic peptide ligand, TBMB scaffold, from CCR4 cell-based selection]

Raw Data (CCR4 [1]; 0.006 nM): 28566 | Raw Data (CCR4 [1]; 0.02 nM): 27298 | Raw Data (CCR4 [1]; 0.06 nM): 26888 | Raw Data (CCR4 [1]; 0.17 nM): 28025 | Raw Data (CCR4 [1]; 0.51 nM): 31189 | Raw Data (CCR4 [1]; 1.5 nM): 30670 | Raw Data (CCR4 [1]; 4.6 nM): 27635 | Raw Data (CCR4 [1]; 13.9 nM): 25509 | Raw Data (CCR4 [1]; 41.7 nM): 24463 | Raw Data (CCR4 [1]; 125 nM): 22916 | Raw Data (CCR4 [1]; 375 nM): 24222 | Raw Data (CCR4 [1]; high concentration, 0.001 uM): 10900 | Raw Data (CCR4 [1]; high concentration, 0.003 uM): 11501 | Raw Data (CCR4 [1]; high concentration, 0.008 uM): 12079 | Raw Data (CCR4 [1]; high concentration, 0.023 uM): 12121 | Raw Data (CCR4 [1]; high concentration, 0.1 uM): 13265 | Raw Data (CCR4 [1]; high concentration, 0.2 uM): 13225 | Raw Data (CCR4 [1]; high concentration, 0.6 uM): 13586 | Raw Data (CCR4 [1]; high concentration, 1.9 uM): 13457 | Raw Data (CCR4 [1]; high concentration, 5.6 uM): 13067 | Raw Data (CCR4 [1]; high concentration, 16.7 uM): 13469 | Raw Data (CCR4 [1]; high concentration, 50 uM): 10917 | range of antagonism activity (CCR4 [2]): micromolar range | antagonist for CCR4 (CCR4 [2]): antagonist | Raw Data (CCR4 [2]; 1 nM CCL22, 0.001 uM): 244512 | Raw Data (CCR4 [2]; 1 nM CCL22, 0.003 uM): 269008 | Raw Data (CCR4 [2]; 1 nM CCL22, 0.008 uM): 278839 | Raw Data (CCR4 [2]; 1 nM CCL22, 0.023 uM): 265078 | Raw Data (CCR4 [2]; 1 nM CCL22, 0.1 uM): 267763 | Raw Data (CCR4 [2]; 1 nM CCL22, 0.2 uM): 233858 | Raw Data (CCR4 [2]; 1 nM CCL22, 0.6 uM): 230668 | Raw Data (CCR4 [2]; 1 nM CCL22, 1.9 uM): 210573 | Raw Data (CCR4 [2]; 1 nM CCL22, 5.6 uM): 168855 | Raw Data (CCR4 [2]; 1 nM CCL22, 16.7 uM): 47343 | Raw Data (CCR4 [2]; 1 nM CCL22, 50 uM): 37690 | IC80 (CCR4 [2]; 10 nM CCL22): 14 µM | Raw Data (CCR4 [2]; 10 nM CCL22, 0.001 uM): 166495 | Raw Data (CCR4 [2]; 10 nM CCL22, 0.003 uM): 152456 | Raw Data (CCR4 [2]; 10 nM CCL22, 0.008 uM): 159966 | Raw Data (CCR4 [2]; 10 nM CCL22, 0.023 uM): 163145 | Raw Data (CCR4 [2]; 10 nM CCL22, 0.1 uM): 162443 | Raw Data (CCR4 [2]; 10 nM CCL22, 0.2 uM): 160790 | Raw Data (CCR4 [2]; 10 nM CCL22, 0.6 uM): 164042 | Raw Data (CCR4 [2]; 10 nM CCL22, 1.9 uM): 149995 | Raw Data (CCR4 [2]; 10 nM CCL22, 5.6 uM): 119202 | Raw Data (CCR4 [2]; 10 nM CCL22, 16.7 uM): 94688 | Raw Data (CCR4 [2]; 10 nM CCL22, 50 uM): 55746
Sequence: ACQLTCLPPPRQPGCA [24-15-00-N001, bicyclic peptide ligand, TATA scaffold, from CCR4 cell-based selection]

Raw Data (CCR4 [1]; 0.006 nM): 28548 | Raw Data (CCR4 [1]; 0.02 nM): 25603 | Raw Data (CCR4 [1]; 0.06 nM): 30232 | Raw Data (CCR4 [1]; 0.17 nM): 28531 | Raw Data (CCR4 [1]; 0.51 nM): 32968 | Raw Data (CCR4 [1]; 1.5 nM): 30785 | Raw Data (CCR4 [1]; 4.6 nM): 27510 | Raw Data (CCR4 [1]; 13.9 nM): 24521 | Raw Data (CCR4 [1]; 41.7 nM): 24892 | Raw Data (CCR4 [1]; 125 nM): 21899 | Raw Data (CCR4 [1]; 375 nM): 20214 | Raw Data (CCR4 [1]; high concentration, 0.001 uM): 10817 | Raw Data (CCR4 [1]; high concentration, 0.003 uM): 11788 | Raw Data (CCR4 [1]; high concentration, 0.008 uM): 12385 | Raw Data (CCR4 [1]; high concentration, 0.023 uM): 12607 | Raw Data (CCR4 [1]; high concentration, 0.1 uM): 12143 | Raw Data (CCR4 [1]; high concentration, 0.2 uM): 13151 | Raw Data (CCR4 [1]; high concentration, 0.6 uM): 12839 | Raw Data (CCR4 [1]; high concentration, 1.9 uM): 12725 | Raw Data (CCR4 [1]; high concentration, 5.6 uM): 12720 | Raw Data (CCR4 [1]; high concentration, 16.7 uM): 12239 | Raw Data (CCR4 [1]; high concentration, 50 uM): 13314 | antagonist for CCR4 (CCR4 [2]): antagonist | Raw Data (CCR4 [2]; 1 nM CCL22, 0.001 uM): 240299 | Raw Data (CCR4 [2]; 1 nM CCL22, 0.003 uM): 222439 | Raw Data (CCR4 [2]; 1 nM CCL22, 0.008 uM): 212749 | Raw Data (CCR4 [2]; 1 nM CCL22, 0.023 uM): 212035 | Raw Data (CCR4 [2]; 1 nM CCL22, 0.1 uM): 215827 | Raw Data (CCR4 [2]; 1 nM CCL22, 0.2 uM): 201484 | Raw Data (CCR4 [2]; 1 nM CCL22, 0.6 uM): 200525 | Raw Data (CCR4 [2]; 1 nM CCL22, 1.9 uM): 198268 | Raw Data (CCR4 [2]; 1 nM CCL22, 5.6 uM): 171795 | Raw Data (CCR4 [2]; 1 nM CCL22, 16.7 uM): 116828 | Raw Data (CCR4 [2]; 1 nM CCL22, 50 uM): 102610 | Raw Data (CCR4 [2]; 10 nM CCL22, 0.001 uM): 163937 | Raw Data (CCR4 [2]; 10 nM CCL22, 0.003 uM): 138339 | Raw Data (CCR4 [2]; 10 nM CCL22, 0.008 uM): 156373 | Raw Data (CCR4 [2]; 10 nM CCL22, 0.023 uM): 159753 | Raw Data (CCR4 [2]; 10 nM CCL22, 0.1 uM): 168602 | Raw Data (CCR4 [2]; 10 nM CCL22, 0.2 uM): 151985 | Raw Data (CCR4 [2]; 10 nM CCL22, 0.6 uM): 158845 | Raw Data (CCR4 [2]; 10 nM CCL22, 1.9 uM): 143688 | Raw Data (CCR4 [2]; 10 nM CCL22, 5.6 uM): 150686 | Raw Data (CCR4 [2]; 10 nM CCL22, 16.7 uM): 132736 | Raw Data (CCR4 [2]; 10 nM CCL22, 50 uM): 138731
Sequence: ACQLTCLTPARQPGCA [24-14-00-N001, bicyclic peptide ligand, TATA scaffold, from CCR4 cell-based selection]
